The supplement of paper PMC10567573

B1: SLC19A2 (parent)
chain: FASLRPSEPFLTPYLLGPDKNLTE

Variants of: B1
Experiment: protein stability index of a GFP-peptide fusion (GPS, HEK-293T) (PSI 1-6); higher = more stable
Conditions: c terminus: a fixed tail appended
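Note: lentivirally expressed fusions sorted by FACS into six bins by GFP to DsRed ratio, PSI derived from sequencing read proportions per bin multiplied by bin number.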

Protein stability index of substitutions, site by site:
P6: I 3.26, L 1.8, W 2.98, S 1.78, R 2.12, N 1.76, Q 2.16, T 2.7, Y 1.83, H 1.54, K 2.13, M 1.36, V 1.9
P9: F 3.54, Q 1.98, I 1.77, W 2.12, S 1.61, M 2.37, Y 2.29, G 2.18, C 2.26, N 2.52, T 2.48, R 1.39, H 1.67, D 2.85, K 1.78, V 2.9, A 2.27, E 1.82, L 2.5
E8: K 2.1, W 2.48, P 2.12, T 1.81, M 1.88, N 2.3, G 1.99, D 1.63, R 1.59, S 1.98, H 1.66, Y 1.72, V 2.14, I 2.19, C 1.68, L 1.26, A 1.49, Q 1.69, F 1.78
S7: Y 1.42, N 1.9, P 1.87, Q 1.76, M 1.24, T 1.75, W 3.01, R 1.71, A 1.68, E 1.82, D 1.92, L 1.72, K 1.98, V 2.27, C 2.28, H 2.03, I 1.5, G 2.07, F 2.01
L11: N 1.78, G 2.06, W 3.29, V 1.61, P 2.03, Q 2.09, K 2.03, D 2.29, R 1.81, M 2.18, C 1.86, E 2.88, F 2.63, S 1.91, H 2.03, A 2.42, T 1.94, I 1.58
T12: E 3.47, W 2.17, Q 2.3, F 1.74, C 2.1, K 1.88, P 1.89, Y 2.24, L 1.67, H 1.72, G 2.35, M 1.93, D 1.97, N 2.05, A 1.79, I 2, R 1.74, S 1.93, V 1.28
L15: C 2.23, A 1.91, D 2.43
F10: D 3.28, P 3.15, L 2.12, E 2.66, K 2.72, I 2.23, W 2.88, A 2.52, H 2.61, Y 2.04, G 2.3, M 2.35, Q 2.44, S 2.16, C 2.11, V 2.67, R 2.94, T 2.15, N 3.22
Y14: T 2.58, P 3.25, M 2.6, E 2.76, D 2.49, H 2.57, G 2.18, N 3.22, S 2.21, L 2.06, W 1.46, I 2.66, K 2.42, R 2.87, Q 2.69, V 2.22, C 2.27, F 2.38, A 2.42
P13: E 1.95, D 2.28, H 1.76, Q 1.94, C 1.84, W 1.88, N 1.86, S 1.99, G 1.59, T 1.66, M 1.46, L 2.14, V 2.02, Y 1.58, A 2.58, F 2.1, I 2.91, R 1.68, K 2.56
